Reference: patent US20060210570A1

Target: prostasin (recombinant human, soluble, active two-chain form purified from conditioned medium of CHO cells transfected with full-length prostasin) (human) (UniProt Q16651)
Experiment: cell-based or functional assay

IC50 (nM), inhibition of prostasin amidolytic activity towards S2765 | Substance
> 1000 nM | Alzheimer's amyloid β protein precursor inhibitor (APPI) (from UniProt P05067 287-344)
66 nM | sHAI-1B wildtype (soluble hepatocyte growth factor activator inhibitor-1B, entire extracellular domain) (from UniProt O43278 36-465)
109 nM | sHAI-1 (obtained from R & D Systems, Inc.) (from UniProt O43278 36-449)
